Results published in patent US20260008852A1 (CRYSTAL BIOSCIENCE, published 2026).
Residue numbers refer to the chain shown, from its start.

T1: B7-H3 on CHO-K1 cells stably transfected with B7-H3 (GenScript #M00536) (UniProt Q5ZPR3 29-534, limits assumed)
T1 sequence (looked up): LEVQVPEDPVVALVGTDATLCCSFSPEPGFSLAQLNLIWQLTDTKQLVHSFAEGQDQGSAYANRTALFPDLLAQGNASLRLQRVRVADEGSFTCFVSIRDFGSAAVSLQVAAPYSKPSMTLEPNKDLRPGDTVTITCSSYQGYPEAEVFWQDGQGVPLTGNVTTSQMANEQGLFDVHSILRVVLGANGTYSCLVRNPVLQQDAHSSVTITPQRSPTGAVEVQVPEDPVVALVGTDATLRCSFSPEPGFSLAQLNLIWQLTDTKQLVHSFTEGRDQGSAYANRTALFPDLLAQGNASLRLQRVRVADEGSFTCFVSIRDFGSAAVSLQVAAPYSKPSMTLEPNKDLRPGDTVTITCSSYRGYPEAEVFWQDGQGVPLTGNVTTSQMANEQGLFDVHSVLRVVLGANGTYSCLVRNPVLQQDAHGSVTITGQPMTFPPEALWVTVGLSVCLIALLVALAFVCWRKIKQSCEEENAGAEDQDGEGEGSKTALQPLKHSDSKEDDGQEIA

B1: 40633p1.1.H11 IgG (antibody, V domains shown)
VH: EVQLLESGGGLVQPGGSLRLSCAASGFTFSSYPMTWVRQAPGKGLEWVADINSGGGTTLYADAVKGRFTISRDNSKNIVYLQMNSLRGEDTAVYYCAKHLDYYSYGMDVWGQGTTVTVSS
VL: QSVLTQPPSASGTPGQRVTISCSGVTSKIGSKYVHWYQQLPGTAPKLLIYRNFERPSGVPDRFSGSTSGTSASLAISGLQSEDEADYYCATWEGALNGWVFGGGTKLTVL
B2: 40633p1.1.F2 IgG (antibody, V domains shown)
VH: EVQLLESGGGLVQPGGSLRLSCVASGLTFNGFAMTWVRQAPGKGLEWVSGISWNSGSIYYADSVKGRFTISRDNSKNTVYLQMSSLRAEDTAIYYCAKNWNDYYNSMDVWGQGTTVTVSS
VL: QSVLTQPPSASGTPGQRVTISCSGSRSNIGTKYVYWYQQFPGTAPKLLIYTTDRRPSGVPDRFSGSKSGTSASLAISGLQSEDEADYYCSAWDDRLNAWVFGGGTKLTVL
B3: 40633p1.1.D11 IgG (antibody, V domains shown)
VH: EVQLLESGGGLVQPGGSLRLSCAASGFTFRSYAMSWVRQAPGKGLEWVAYIGSSGGTTYYADSVKGRFTISRDNSKNTLYLQMNSLRAEDTAVYYCVKESYYYMDVWGQGTTVTVSS
VL: QSVLTQPPSASGTPGQRVTISCSATISNIDINRVSWYQQLPGTAPKLLIFNSQRPSGVPDRFSGSKSGTSASLAISGLQSEDEADYYCATWDDSLNSWVFGGGTKLTVL
B4: 40633p1.1.G7 IgG (antibody, V domains shown)
VH: EVQLLESGGGLVQPGGSLRLSCAASGFTFSGSAMNWVRQAPGKGLEWVSAINSGGTTIYYADSVKGRFTVSRDNSKNTLYLQMNSLRAEDTAVYYCVKLDFYYGMDVWGEGTTVTVSS
VL: QSVVTQPPSASGTPGQRVTVSCSGSSSNVGSKYVQWYQQLPGTAPKLLIYATDRRPSGVPDRFSGSKSGTSASLAISGLQSEDEADYYCASWDDSLNAWVFGGGTKLTVL
B5: 40579p1.H7 IgG (antibody, V domains shown)
VH: EVQLLESGGDLVQPGGSLRLSCAASGFNFSSYWMSWVRQAPGKGLEWVSGISISYGGNAYYADSVKGRFTVSRDNSKNTLYLQMNSLRAEDTAVYYCGRDRSPYQYRSMDVWGQGTTVTVSS
VL: EIVLTQSPGTLSLSPGERATLSCRASQSIRSDLAWYQQKPGQAPRLLIYGASSRATGIPARFSGSGSGTEFTLTISSLQSEDFAVYYCQQYNNWPPLTFGGGTKVEIK
B6: 40633p1.1.A7 IgG (antibody, V domains shown)
VH: EVQLLESGGGLVQPGGSLRLSCAASGFTVSYYGMSWVRQAPGKGLEWVSAIKQDGSEKYYADSVKGRFTISRDNSKNTLYLQMNSLRAEDTAVYYCARHWNDYSNAMNVWGQGTTVTVSS
VL: QSVLTQPPSASGTPGQRVTISCSGSTSNIGRESVYWYQQLPGTAPKLLIYTIDQRPSGVPDRFSGSKSGTSASLAISGLQSEDEAVYYCASWDASLNGWVFGGGTKLTVL
B7: 40633p1.1.G11 IgG (antibody, V domains shown)
VH: B6 VH with A50V, K58E, L86P, A106G
VL: B6 VL with I29V, R31D, E32R, S33Y, T51L, I52D, V86D
B8: 40633p1.2.A10 IgG (antibody, V domains shown)
VH: B6 VH with A50V, K58E, A106G
VL: B6 VL with I29V, R31D, E32R, S33Y, T51L, I52D, V86D
B9: 40633p1.2.C3 IgG (antibody, V domains shown)
VH: B6 VH with G111E
VL: B6 VL with T26N, I29V, R31G, E32N, S33Y, Y35S, T51R, I52N, D53S
B10: 40633p1.1.B3 IgG (antibody, V domains shown)
VH: B6 VH
VL: B6 VL with V86D, A90G, S91T, A94D, G98A
B11: 40633p1.1.E3 IgG (antibody, V domains shown)
VH: B6 VH
VL: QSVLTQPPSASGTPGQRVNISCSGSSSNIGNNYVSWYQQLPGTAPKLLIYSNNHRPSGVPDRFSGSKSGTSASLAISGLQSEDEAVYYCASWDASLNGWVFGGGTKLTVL
B12: 40633p1.1.G5 IgG (antibody, V domains shown)
VH: B6 VH with T28I, S30N, A40P, N77T, A106G
VL: QSVLTQPPSASGTPGQRVTISCSGSWSNIGSYNSHWYQKLPGTAPKLLIYTTDRRPSGVPDRFSGSKSGTSASLAISGLQSEDEADYYCGTWDDSLNVWVFGGGTKLTVL
B13: 40633p1.2.D11 IgG (antibody, V domains shown)
VH: EVQLESGGGLVQPGGSLRLSCAASGFTVSYYGMSWVRQAPGKGLEWVSAIKQDGSEKYYADSVKGRFTISRDNSKNTLYLQMNSLRAEDTAVYYCARHWNDYSNAMNVWGQGTTVTVSS
VL: B6 VL with G30A, R31I, E32D, S33F, Y35N, G103R
B14: 40633p1.1.C11 IgG (antibody, V domains shown)
VH: EVQLLESGGGLVQPGGSLRLSCAASGFTFSSYWMSWVRQAPGKGLEWVAGINRNGGTTYYADSVKGRFTISRDNSKNTLYLQMNSLRAEDTAVYYCARWNDYDIMDVWGQGTTVTVSS
VL: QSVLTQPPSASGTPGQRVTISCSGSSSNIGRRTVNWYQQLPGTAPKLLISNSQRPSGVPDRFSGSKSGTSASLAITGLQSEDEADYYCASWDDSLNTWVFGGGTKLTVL
B15: 40633p1.2.C11 IgG (antibody, V domains shown)
VH: B14 VH with T57S, K76E, M83V
VL: QSVLTQPSSASGTPGQRVTISCSGSSSNVGRRAVNWYQQLPGTAPKLLISNSQRPSGVPDRFSGSKSGTSASLAISGLQSEDEADYYCATWDASLNSWVFGGGTKLTVL
B16: 40633p1.2.D7 IgG (antibody, V domains shown)
VH: B14 VH with G10S, A49S, N52S, R53S, N54S, G56S, T57A
VL: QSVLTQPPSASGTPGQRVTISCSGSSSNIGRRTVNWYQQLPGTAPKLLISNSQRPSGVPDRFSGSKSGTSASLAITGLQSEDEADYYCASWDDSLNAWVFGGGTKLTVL
B17: 40633p1.1.E4 IgG (antibody, V domains shown)
VH: B14 VH with A49S, N52S, R53S, N54S, G56S, T57A
VL: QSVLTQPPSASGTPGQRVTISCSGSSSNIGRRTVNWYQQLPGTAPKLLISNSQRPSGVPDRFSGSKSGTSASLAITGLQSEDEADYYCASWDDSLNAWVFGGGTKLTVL
B18: 40633p1.2.D1 IgG (antibody, V domains shown)
VH: EVQLLESGGGLVQPGGSLRLSCAASGFTFDVYGMSWVRQAPGKGLEWVSAINWNGGSTYYADSVKGRFTISRDNSENTLYLQMNSLRAEDTAVYYCAKEKWKHFIYYGMDVWGQGTTVTVSS
VL: QSVLTQPASASGTPGQTVSISCSGSSSNIDSNTANWYQQLPGTAPKLLIYSNNQRPSGVPDRFSGSKSDTSASLAISGLQSEDEGDYYCSAWDDNLNGWLFGGGTKLTVL

Target: T1, B7-H3 on CHO-K1 cells stably …
Assay: cell-based or functional assay

Binder	ADCC reporter assay, EC50 Value, CHOK1/B7-H3 cells	ADCC reporter assay, Max RLU, CHOK1/B7-H3 cells
B1	0.0412 µg/mL	798000 RLU
B2	0.0214 µg/mL	519000 RLU
B3	0.0119 µg/mL	656000 RLU
B4	0.0419 µg/mL	656000 RLU
B5	0.0126 µg/mL	833000 RLU
B6	~0.0125 µg/mL	634000 RLU
B7	0.0344 µg/mL	725000 RLU
B8	0.0471 µg/mL	762000 RLU
B9	0.402 µg/mL	490000 RLU
B10	0.0227 µg/mL	680000 RLU
B11	0.135 µg/mL	625000 RLU
B12	0.18 µg/mL	452000 RLU
B13	0.107 µg/mL	510000 RLU
B14	0.0173 µg/mL	719000 RLU
B15	~1.56 µg/mL	94400 RLU
B16	0.0213 µg/mL	820000 RLU
B17	0.0194 µg/mL	676000 RLU
B18	0.0216 µg/mL	676000 RLU
